Experimental findings from the supplement of paper PMC6379048 are described below.

Common to all, as to assay: EC50 of free RNA motif oligo competing protein binding to immobilised probe
In series [1] the target is T1, PABPN1 (UniProt Q86U42).
T1 sequence: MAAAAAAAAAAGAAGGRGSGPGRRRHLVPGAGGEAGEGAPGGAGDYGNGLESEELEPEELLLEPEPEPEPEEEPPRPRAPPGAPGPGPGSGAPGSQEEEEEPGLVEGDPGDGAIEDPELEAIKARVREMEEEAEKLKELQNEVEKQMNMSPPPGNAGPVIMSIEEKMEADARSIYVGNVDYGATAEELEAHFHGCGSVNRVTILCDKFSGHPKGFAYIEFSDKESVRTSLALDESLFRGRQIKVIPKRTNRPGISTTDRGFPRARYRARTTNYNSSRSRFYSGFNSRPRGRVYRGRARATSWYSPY
In a few lines: (§1)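 Free RNA oligos (0 nM to 30 μM) competed for 1 h at 4°C in HEK293-FT lysate (2.5 mg protein/well) before a 30 min, 4°C pulldown with the same oligos on NHS-Sepharose beads. Bound proteins were quantified by label-free LC-MS/MS and normalised to the control. Kd was found by multiplying EC50, from a four-parameter log-logistic fit, by a protein-dependent depletion factor.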

Series [2] addresses T2, SF3B2 (UniProt Q13435).
T2 sequence: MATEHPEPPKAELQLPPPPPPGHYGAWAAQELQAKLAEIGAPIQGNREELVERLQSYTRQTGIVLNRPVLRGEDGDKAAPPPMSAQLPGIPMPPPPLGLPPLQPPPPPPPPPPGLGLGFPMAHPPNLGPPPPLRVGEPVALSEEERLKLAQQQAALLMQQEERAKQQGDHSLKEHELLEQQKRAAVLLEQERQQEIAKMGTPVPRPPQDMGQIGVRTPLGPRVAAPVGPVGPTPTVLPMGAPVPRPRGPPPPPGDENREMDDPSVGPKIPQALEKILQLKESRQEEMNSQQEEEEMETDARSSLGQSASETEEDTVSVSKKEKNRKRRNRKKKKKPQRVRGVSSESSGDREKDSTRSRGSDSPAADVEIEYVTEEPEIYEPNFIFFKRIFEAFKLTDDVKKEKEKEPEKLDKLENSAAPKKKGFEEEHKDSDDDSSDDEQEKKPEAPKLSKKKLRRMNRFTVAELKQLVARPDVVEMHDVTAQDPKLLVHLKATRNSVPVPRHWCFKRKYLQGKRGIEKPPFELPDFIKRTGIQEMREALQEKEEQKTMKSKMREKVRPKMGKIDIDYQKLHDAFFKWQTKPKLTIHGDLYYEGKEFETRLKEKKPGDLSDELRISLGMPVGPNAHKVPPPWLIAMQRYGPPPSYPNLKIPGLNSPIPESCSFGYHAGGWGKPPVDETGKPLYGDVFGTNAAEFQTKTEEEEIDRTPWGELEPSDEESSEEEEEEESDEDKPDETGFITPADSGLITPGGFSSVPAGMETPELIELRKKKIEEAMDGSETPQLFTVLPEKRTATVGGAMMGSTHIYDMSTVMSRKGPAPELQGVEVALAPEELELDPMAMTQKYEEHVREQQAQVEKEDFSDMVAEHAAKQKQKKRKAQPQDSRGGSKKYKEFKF
In a few lines:
as §1

The target in series [3] is T3, ZGPAT (UniProt Q8N5A5).
T3 sequence: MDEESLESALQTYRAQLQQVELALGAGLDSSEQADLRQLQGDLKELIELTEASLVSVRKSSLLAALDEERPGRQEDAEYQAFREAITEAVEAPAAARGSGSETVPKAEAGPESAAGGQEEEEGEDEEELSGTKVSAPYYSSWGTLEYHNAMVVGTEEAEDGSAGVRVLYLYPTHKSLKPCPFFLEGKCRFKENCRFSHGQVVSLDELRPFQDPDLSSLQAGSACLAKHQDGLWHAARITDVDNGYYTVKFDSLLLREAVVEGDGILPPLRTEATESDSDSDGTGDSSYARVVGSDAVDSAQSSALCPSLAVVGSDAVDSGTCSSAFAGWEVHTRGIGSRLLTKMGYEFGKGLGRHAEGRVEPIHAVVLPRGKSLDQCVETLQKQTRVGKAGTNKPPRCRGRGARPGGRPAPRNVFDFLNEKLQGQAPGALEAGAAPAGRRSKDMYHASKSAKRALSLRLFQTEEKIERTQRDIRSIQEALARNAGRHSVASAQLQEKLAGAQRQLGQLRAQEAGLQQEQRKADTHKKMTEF
In a few lines:
as §1

In series [4] the target is PCBP1 (UniProt Q15365). In a few lines:
as §1

In series [5] the target is HNRNPU (UniProt Q00839). Summed up:
as §1

For series [6], the target named is RPS19 (UniProt P39019). Summed up: as §1
Series [7] addresses MRPS18A (UniProt Q9NVS2). In a few lines: as §1
Series [8] deals with MRPL1 (UniProt Q9BYD6). In a few lines:
as §1

The target of series [9] is MRPL21 (UniProt Q7Z2W9). Summed up: as §1
The target of series [10] is PCBP2 (UniProt Q15366). In a few lines: as §1
Sequence of PCBP2 (Q15366 whole entry): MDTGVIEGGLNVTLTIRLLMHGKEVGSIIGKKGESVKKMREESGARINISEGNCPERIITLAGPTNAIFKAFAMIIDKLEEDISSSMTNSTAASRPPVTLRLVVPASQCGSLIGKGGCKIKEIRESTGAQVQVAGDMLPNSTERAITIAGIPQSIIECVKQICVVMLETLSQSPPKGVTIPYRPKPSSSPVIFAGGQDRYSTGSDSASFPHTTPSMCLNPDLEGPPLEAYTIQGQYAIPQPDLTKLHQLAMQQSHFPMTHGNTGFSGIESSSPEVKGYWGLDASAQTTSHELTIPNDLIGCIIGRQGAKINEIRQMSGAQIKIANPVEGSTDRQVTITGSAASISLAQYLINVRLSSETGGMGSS
The target in series [11] is T4, ZCRB1 (UniProt Q8TBF4).
T4 sequence: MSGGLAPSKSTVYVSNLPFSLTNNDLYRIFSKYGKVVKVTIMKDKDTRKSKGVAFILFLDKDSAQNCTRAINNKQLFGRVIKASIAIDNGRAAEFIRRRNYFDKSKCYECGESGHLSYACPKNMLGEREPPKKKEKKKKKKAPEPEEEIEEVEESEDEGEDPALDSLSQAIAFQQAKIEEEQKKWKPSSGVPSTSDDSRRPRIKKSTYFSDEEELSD
In a few lines:
as §1

Series [12] concerns the target TARDBP (UniProt Q13148). Summed up: as §1

Sequence of HNRNPU (Q00839 whole entry): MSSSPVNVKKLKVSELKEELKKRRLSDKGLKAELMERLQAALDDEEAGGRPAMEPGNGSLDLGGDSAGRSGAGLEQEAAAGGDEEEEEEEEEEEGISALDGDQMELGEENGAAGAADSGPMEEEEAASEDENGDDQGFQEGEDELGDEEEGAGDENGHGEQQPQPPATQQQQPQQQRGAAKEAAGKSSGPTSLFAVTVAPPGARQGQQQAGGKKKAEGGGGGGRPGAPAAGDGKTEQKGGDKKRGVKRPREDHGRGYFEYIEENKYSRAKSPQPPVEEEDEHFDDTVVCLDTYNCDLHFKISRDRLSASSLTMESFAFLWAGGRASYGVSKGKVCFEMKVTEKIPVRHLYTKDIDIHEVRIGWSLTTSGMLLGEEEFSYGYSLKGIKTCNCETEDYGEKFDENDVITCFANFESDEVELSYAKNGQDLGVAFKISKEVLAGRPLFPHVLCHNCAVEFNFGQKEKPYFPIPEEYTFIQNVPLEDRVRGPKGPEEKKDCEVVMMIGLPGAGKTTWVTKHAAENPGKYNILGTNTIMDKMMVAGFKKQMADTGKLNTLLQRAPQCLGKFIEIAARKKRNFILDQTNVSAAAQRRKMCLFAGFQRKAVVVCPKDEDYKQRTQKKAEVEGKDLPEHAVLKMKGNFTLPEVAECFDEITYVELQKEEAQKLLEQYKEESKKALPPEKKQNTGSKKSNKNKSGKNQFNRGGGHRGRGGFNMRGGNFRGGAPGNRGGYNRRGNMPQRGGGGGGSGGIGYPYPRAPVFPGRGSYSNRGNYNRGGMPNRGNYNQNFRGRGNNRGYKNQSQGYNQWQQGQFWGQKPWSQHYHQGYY
Sequence of TARDBP (Q13148 whole entry): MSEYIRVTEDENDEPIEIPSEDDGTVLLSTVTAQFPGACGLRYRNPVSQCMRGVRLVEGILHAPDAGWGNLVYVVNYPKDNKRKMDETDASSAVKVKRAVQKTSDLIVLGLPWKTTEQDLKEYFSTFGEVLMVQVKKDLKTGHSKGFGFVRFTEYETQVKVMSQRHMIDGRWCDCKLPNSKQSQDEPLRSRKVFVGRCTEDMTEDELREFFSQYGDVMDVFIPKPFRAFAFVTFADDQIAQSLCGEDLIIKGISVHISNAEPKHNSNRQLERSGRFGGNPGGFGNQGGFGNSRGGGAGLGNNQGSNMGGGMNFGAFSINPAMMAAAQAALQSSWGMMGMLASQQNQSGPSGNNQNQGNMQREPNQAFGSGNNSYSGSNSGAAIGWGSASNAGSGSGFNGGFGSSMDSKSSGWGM
Sequence of PCBP1 (Q15365 whole entry): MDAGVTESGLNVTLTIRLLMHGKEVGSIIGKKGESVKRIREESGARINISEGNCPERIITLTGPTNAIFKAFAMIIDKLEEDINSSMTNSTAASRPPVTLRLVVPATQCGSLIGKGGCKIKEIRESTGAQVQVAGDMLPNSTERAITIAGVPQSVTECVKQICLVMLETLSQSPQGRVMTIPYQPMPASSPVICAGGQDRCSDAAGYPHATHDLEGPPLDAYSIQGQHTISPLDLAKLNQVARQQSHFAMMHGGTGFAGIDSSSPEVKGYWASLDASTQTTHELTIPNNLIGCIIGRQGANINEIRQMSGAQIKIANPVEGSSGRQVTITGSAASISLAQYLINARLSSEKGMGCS

Regarding AAUAAA, the EC50 in series [1] came to 3520 nM; in series [2] it was 1180 nM; in [3], 9600 nM.

For the sequence CUGUCCU, the EC50 in [4] was found to be 3360 nM; in series [5] it was 378 nM; in series [6] it was 176 nM; in series [7] it was 102 nM; in series [8], 259 nM; in series [9], 151 nM. Further, in series [10], the EC50 turned out to be 3390 nM.

Turning to UAUUUAU, the values for the EC50 in [11] and in series [12] were 3800 nM and 2790 nM, respectively.
